# Assay results published in patent US20070213253A1, “Synuclein Mutant Having Aggregation-Inhibitory Activity” (priority 2003, published 2007).
# Target: T1, wild type α-synuclein (Homo sapiens, UniProt P37840)
# T1 construct: made in house; host or cells: Escherichia coli (pTYB1/α-syn; strain ER2566 is named for the mutants)
# Test: Inhibition of fibril formation of wild type α-synuclein by partial structure peptide, TfT fluorescence
# Format: biochemical
# Details: peptide 0.2 mg/ml in 2 mg/ml wild type α-synuclein, 37° C.
# Experimental: A synthetic α-synuclein partial structure peptide consisting of 10 amino acid residues of NH2-[…]COOH was dissolved at 0.2 mg/ml in a 2 mg/ml solution of purified wild type α-synuclein, and incubated at 37° C. Aliquot of 10 μl was collected in predetermined intervals. To the collected sample was added a buffer solution of 10 mM Tris-HCl, pH 7.4, containing a fluorescent dye thioflavine T (TfT), which specifically binds to a fibril structure, in a final concentration of 25 μM to make a volume of 100 μl, and fluorescence spectrum was monitored immediately (Ex 440 nm; Em 450-550 nm). The fibril formation rate and the amount thereof were determined from the increase in the fluorescence intensity of TfT.
substance,measurement,value
"NH2-Val-Gly-Gly-Ala-Thr-Thr-Thr-Gly-Val-Thr-COOH (H-VGGATTTGVT-OH) [α-synuclein partial structure peptide, synthetic α-synuclein partial structure peptide consisting of 10 amino acid residues]",decrease of the fibril formation ability of the wild type α-synuclein (to the extent of),about 20%
